Measured values: PMC11961710, “Design and implementation of aerobic and ambient CO2-reduction as an entry-point for enhanced carbon fixation” (Nature Communications, 2025)

Columns and labels:
[1] = target: T1, BKACE15 (Paracoccus denitrificans, UniProt A1B802); test: crystal structure at […] Å (with acetyl-CoA); product inhibition measured by LC-MS with purified enzyme; format: biochemical
T1 construct: gene Pden_3578
T1 sequence (A1B802 1-310): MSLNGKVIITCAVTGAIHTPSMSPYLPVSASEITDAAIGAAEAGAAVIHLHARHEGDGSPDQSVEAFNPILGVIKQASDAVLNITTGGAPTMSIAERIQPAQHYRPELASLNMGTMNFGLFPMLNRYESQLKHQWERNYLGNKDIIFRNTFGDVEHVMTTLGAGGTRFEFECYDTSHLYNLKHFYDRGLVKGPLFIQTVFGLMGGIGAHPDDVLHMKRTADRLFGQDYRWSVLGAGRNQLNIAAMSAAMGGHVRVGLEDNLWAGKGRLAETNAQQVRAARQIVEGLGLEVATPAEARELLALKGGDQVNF

[2] = substrate: CC(=O)SCCNC(=O)CCNC(=O)[C@H](O)C(C)(C)COP(=O)(O)OP(=O)(O)OC[C@H]1O[C@@H](n2cnc3c(N)ncnc32)[C@H](O)[C@@H]1OP(=O)(O)O; test: purified protein; conditions: Zn2+ active site entry channel, fully occupied upon acetyl-CoA binding
[3] = substrate: O=CCC(=O)O; test: purified protein; format: biochemical, Paracoccus denitrificans; conditions: Zn2+ MSA must enter the active site first, before acetyl-CoA can bind

## CC(=O)CC(=O)O [AAE, acetoacetate]
[1]
  IC50: 1450 ± 160 µM

B1: BKACE15 (Paracoccus denitrificans PD1222) (protein)
chain: T1 sequence (A1B802 1-310)
[2]
  Km: 110 ± 10 µM
[3]
  Km: 830 ± 90 µM
